Test results from the supplement of paper PMC10567573.

B1: ETS2 (parent)
chain: TSGKRYVYRFVCDLQNLLGFTPEE

Variants of: B1
Experiment: protein stability index of a GFP-peptide fusion (GPS, HEK-293T) (PSI 1-6); higher = more stable
Details: c terminus: a fixed tail appended
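Also: lentivirally expressed fusions sorted by FACS into six bins by GFP to DsRed ratio, PSI derived from sequencing read proportions per bin multiplied by bin number.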

| Variant | protein stability index |
| --- | --- |
| TSGKRYVYRFVCDLYNLLGFTPEE | 2.23 |
| TSGKRYVYRFVCDLWNLLGFTPEE | 1.88 |
| TSGKRYVYRFVCDLFNLLGFTPEE | 2.09 |
| TSGKRYVYRFVCDLQNLLGFTCEE | 1.4 |
| TSGKRYVYRFVCDLQNLLGFTAEE | 1.65 |
| TSGKRYVYRFVCDLQNLLGFTQEE | 2.16 |
| TSFKRYVYRFVCDLQNLLGFTPEE | 2.33 |
| TSRKRYVYRFVCDLQNLLGFTPEE | 2 |
| TSWKRYVYRFVCDLQNLLGFTPEE | 1.65 |
| TSKKRYVYRFVCDLQNLLGFTPEE | 1.7 |
| TSGQRYVYRFVCDLQNLLGFTPEE | 1.7 |
| TSGPRYVYRFVCDLQNLLGFTPEE | 1.83 |
| TSGRRYVYRFVCDLQNLLGFTPEE | 3.33 |
| TSGFRYVYRFVCDLQNLLGFTPEE | 2.34 |
| TSGKRYVYRFVCDLQNLLGFTPEL | 1.96 |
| TSGKRYVYRFVCDLQNLLGFTPEF | 2.96 |
| TSGKRYVYRFVCDLQNLLGFTPEW | 2.5 |
| TSGKRYVYRFVCDLQNLLGFTPEV | 2.51 |
| TSGKRYVYRFVCDLQNLLGFTPEN | 2.33 |
| TSGKRYVYRFVCDLQNLLIFTPEE | 2.39 |
| TSGKRYVYRFVCDLQNLLSFTPEE | 2.13 |
| TSGKRYVYRNVCDLQNLLGFTPEE | 3.32 |
| TSGKRYVYRDVCDLQNLLGFTPEE | 3.9 |
| TSGKRYVYRSVCDLQNLLGFTPEE | 3.37 |

| Variant | protein stability index |
| --- | --- |
| TSGKRYVYRPVCDLQNLLGFTPEE | 2.59 |
| TSGKRYVYRIVCDLQNLLGFTPEE | 2.02 |
| TSGKRYVYRCVCDLQNLLGFTPEE | 2.06 |
| TSGKRYVYRMVCDLQNLLGFTPEE | 2.06 |
| TSGKYYVYRFVCDLQNLLGFTPEE | 2.88 |
| TSGKPYVYRFVCDLQNLLGFTPEE | 1.52 |
| TSGKAYVYRFVCDLQNLLGFTPEE | 2.44 |
| TSGKFYVYRFVCDLQNLLGFTPEE | 3.19 |
| TSGKRYVYRFVCDLQNLRGFTPEE | 2.09 |
| TSGKRYVYRFVCDLQNLYGFTPEE | 1.74 |
| TSGKRYVYRFVCDLQNLVGFTPEE | 2.91 |
| TSGKRYVYRFVCDLQNLKGFTPEE | 1.95 |
| TSGKRYVYRFVCDLQNLMGFTPEE | 2.07 |
| TSGKRYVYRFVCDLQNLLGFLPEE | 2.1 |
| TSGKRYVYRFVCDLQNLLGFDPEE | 1.6 |
| TSGKRYVYRFVCDLQNLLGFNPEE | 2.38 |
| TSGKRYVYRFVCDLQNLLGFYPEE | 1.77 |
| TSGKRYVYRFVCDLQNLLGPTPEE | 3.26 |
| TSGKRYVYRFVCDLQNLLGTTPEE | 1.88 |
| TSGKRYVYRFVCDLQNLLGATPEE | 2.59 |
| TSGKRYVYRFVCDLQNLLGQTPEE | 2.35 |
| TSGKRYVYRFVCDLQNLLGVTPEE | 1.93 |
| TSGKRYVYRFVCDLQNLLGFTPQE | 2.63 |
| TSGKRYVYRFVCDLQNLLGFTPLE | 2.42 |

| Variant | protein stability index |
| --- | --- |
| TSGKRYVYRFVCDLQNLLGFTPAE | 2.68 |
| TSGKRYVYRFVCDLQNLLGFTPPE | 3.46 |
| TSGKRYVYRFVCDLQALLGFTPEE | 2.13 |
| TSGKRYVYRFVCDLQYLLGFTPEE | 1.75 |
| TSGKRYVYRFKCDLQNLLGFTPEE | 2.15 |
| TSGKRYVYRFICDLQNLLGFTPEE | 2.64 |
| TSGKRYVYRFPCDLQNLLGFTPEE | 2.85 |
| TSGKRYVVRFVCDLQNLLGFTPEE | 2.5 |
| TSGKRYVERFVCDLQNLLGFTPEE | 2.67 |
| TSGKRYVTRFVCDLQNLLGFTPEE | 2.29 |
| TSGKRYVQRFVCDLQNLLGFTPEE | 2.02 |
| TSGKRYVYRFVCDGQNLLGFTPEE | 2.34 |
| TSGKRYVYRFVCDKQNLLGFTPEE | 3.2 |
| TSGKRYVYRFVCDQQNLLGFTPEE | 2.81 |
| TSGKRYVYRFVCDEQNLLGFTPEE | 3.19 |
| THGKRYVYRFVCDLQNLLGFTPEE | 2.62 |
| TGGKRYVYRFVCDLQNLLGFTPEE | 2.02 |
| TKGKRYVYRFVCDLQNLLGFTPEE | 2.29 |
| TNGKRYVYRFVCDLQNLLGFTPEE | 3.49 |
| TQGKRYVYRFVCDLQNLLGFTPEE | 1.85 |
| TWGKRYVYRFVCDLQNLLGFTPEE | 4.44 |
| TSGKRYVYRFVGDLQNLLGFTPEE | 2.04 |
| TSGKRYVYRFVSDLQNLLGFTPEE | 2.9 |
| TSGKRYVYRFVTDLQNLLGFTPEE | 2.17 |

| Variant | protein stability index |
| --- | --- |
| TSGKRYVYRFVFDLQNLLGFTPEE | 1.68 |
| YSGKRYVYRFVCDLQNLLGFTPEE | 1.71 |
| ESGKRYVYRFVCDLQNLLGFTPEE | 2.38 |
| WSGKRYVYRFVCDLQNLLGFTPEE | 2.1 |
| MSGKRYVYRFVCDLQNLLGFTPEE | 1.86 |
| NSGKRYVYRFVCDLQNLLGFTPEE | 1.82 |
| TSGKRYHYRFVCDLQNLLGFTPEE | 2.04 |
| TSGKRYAYRFVCDLQNLLGFTPEE | 1.29 |
| TSGKRYRYRFVCDLQNLLGFTPEE | 1.03 |
| TSGKRYNYRFVCDLQNLLGFTPEE | 1.25 |
| TSGKRYVYRFVCDLQNMLGFTPEE | 1.47 |
| TSGKRYVYRFVCDLQNTLGFTPEE | 2.98 |
| TSGKRYVYRFVCDLQNQLGFTPEE | 1.71 |
| TSGKRYVYRFVCDLQNNLGFTPEE | 2.27 |
| TSGKRYVYRFVCDLQNILGFTPEE | 2.31 |
| TSGKRYVYMFVCDLQNLLGFTPEE | 3 |
| TSGKRYVYQFVCDLQNLLGFTPEE | 1.72 |
| TSGKRYVYWFVCDLQNLLGFTPEE | 1.96 |
| TSGKRYVYCFVCDLQNLLGFTPEE | 1.53 |
| TSGKRYVYRFVCELQNLLGFTPEE | 2.11 |
| TSGKRYVYRFVCFLQNLLGFTPEE | 2.96 |
| TSGKRYVYRFVCILQNLLGFTPEE | 2.81 |
